Test results from US20120244132A1 (published 2012).

Molecular target: T1, latent membrane protein 2 (LMP-2) from the Epstein Barr Virus (EBV) peptide on HLA-A*02:01 (human)
T1 peptide: CLGGLLTMV
Assay: multimer staining

B1: EBVa14-p2A-Vb7.7 (LMP-2-specific TCR of SEQ ID No. 8) (TCR, V domains shown)
Valpha: AQKITQTQPGMFVQEKEAVTLDCTYDTSDQSYGLFWYKQPSSGEMIFLIYQGSYDEQNATEGRYSLNFQKARKSANLVISASQLGDSAMYFCAMREGSGSARQLTFGSGTQLTVLP
Vbeta: GAGVSQSPRYKVTKRGQDVTLRCDPISSHATLYWYQQALGQGPEFLTYFNYEAQPDKSGLPSDRFSAERPEGSISTLTIQRTEQRDSAMYRCASSLGPAGIQETQYFGPGTRLLVL
- binding result: recognises
